Primed or numbered codes have the meaning given here. Where no end group is shown, it is not given here. FITC′ = fluorescein isothiocyanate label
T1: Aeropyrum pernix elongation factor aEF1A (ApeEF1A) (Aeropyrum pernix, UniProt Q9YAV0 1-437)
T1 construct: elongation factor 1-alpha (aEF1A) of Aeropyrum pernix; also called ApeEF1A•GTP; wild type ApeEF1A
T1 sequence (looked up): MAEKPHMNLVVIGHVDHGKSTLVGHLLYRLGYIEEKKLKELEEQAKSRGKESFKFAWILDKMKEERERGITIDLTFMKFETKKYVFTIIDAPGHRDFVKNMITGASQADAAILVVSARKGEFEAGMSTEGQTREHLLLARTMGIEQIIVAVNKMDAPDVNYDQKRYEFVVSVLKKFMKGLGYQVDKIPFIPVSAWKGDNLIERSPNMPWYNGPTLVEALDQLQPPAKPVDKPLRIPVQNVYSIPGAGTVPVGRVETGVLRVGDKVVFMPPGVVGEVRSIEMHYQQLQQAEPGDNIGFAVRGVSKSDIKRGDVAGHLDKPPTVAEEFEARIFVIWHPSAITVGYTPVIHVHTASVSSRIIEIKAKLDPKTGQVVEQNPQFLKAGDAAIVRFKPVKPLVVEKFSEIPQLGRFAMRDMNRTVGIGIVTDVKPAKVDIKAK

T2: Pyrococcus horikoshii elongation factor aEF1A (PhoEF1A) (P. horikoshii, UniProt O59153 1-428)
T2 construct: elongation factor 1-alpha (aEF1A) of Pyrococcus horikoshii; the nucleotide is named in the assay's format; also called PhoEF1A•GTP; PhoEF1A•GDP
T2 sequence: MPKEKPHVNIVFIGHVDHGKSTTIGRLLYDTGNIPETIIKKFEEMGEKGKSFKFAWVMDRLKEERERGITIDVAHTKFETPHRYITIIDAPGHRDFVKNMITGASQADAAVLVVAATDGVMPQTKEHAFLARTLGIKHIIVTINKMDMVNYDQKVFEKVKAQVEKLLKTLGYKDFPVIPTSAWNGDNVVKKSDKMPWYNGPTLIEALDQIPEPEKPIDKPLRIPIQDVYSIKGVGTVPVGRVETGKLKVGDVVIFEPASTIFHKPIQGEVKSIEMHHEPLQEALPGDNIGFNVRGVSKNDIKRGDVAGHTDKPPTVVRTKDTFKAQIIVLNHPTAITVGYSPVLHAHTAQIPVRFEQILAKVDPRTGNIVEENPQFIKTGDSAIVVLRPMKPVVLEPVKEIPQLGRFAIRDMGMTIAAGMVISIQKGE

T3: PhoEF1A•GTP•PfuPelota complex (P. horikoshii | Pyrococcus furiosus, UniProt O59153 1-428; Q8U150 1-356)
T3 construct: aPelota of Pyrococcus furiosus; Complex of m2 (GTP form) and m3, titrated as a complex in fluorescence polarisation; also called aEF1A•GTP•aPelota; source: E. coli, each protein purified, then complexed with GTP
T3 sequence 1: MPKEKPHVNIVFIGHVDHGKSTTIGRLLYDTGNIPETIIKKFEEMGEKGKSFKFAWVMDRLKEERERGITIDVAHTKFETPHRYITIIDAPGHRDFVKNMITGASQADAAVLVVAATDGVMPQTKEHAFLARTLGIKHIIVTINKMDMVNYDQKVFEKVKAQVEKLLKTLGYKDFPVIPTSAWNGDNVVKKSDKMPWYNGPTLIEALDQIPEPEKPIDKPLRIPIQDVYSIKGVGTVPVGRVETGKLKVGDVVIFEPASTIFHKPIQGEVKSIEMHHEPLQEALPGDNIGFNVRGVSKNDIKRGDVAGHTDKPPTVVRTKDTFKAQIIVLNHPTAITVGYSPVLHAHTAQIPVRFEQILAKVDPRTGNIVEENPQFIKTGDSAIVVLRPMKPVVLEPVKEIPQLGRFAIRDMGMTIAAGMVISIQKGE
T3 sequence 2: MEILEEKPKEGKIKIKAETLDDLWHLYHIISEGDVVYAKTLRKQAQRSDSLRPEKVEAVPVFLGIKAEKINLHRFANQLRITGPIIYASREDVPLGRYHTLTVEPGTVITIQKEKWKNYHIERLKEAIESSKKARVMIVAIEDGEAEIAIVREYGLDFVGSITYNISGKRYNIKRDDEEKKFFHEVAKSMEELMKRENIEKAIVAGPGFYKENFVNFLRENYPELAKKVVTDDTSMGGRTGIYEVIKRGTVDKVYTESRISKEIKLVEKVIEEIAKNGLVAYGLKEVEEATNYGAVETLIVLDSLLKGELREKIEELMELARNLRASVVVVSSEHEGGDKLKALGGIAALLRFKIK


Experiments:
Details in all cases: both partners purified
[1] = biological target: T1, Aeropyrum pernix elongation factor …; test: pull-down; MBP-P1 fusion held on amylose resin; EF1A (1,000 pmol), Pelota (1,000 pmol) and equal amounts of MBP-P1 in 100 µl PD buffer (25 mM Tris-HCl pH 8.0, 200 mM NaCl, 10 mM MgCl2, 1 mM GTP), 4 °C, 90 min; eluted with 50 mM maltose; SDS-PAGE, CBB staining
[2] = biological target: T1, Aeropyrum pernix elongation factor …; test: crystal structure; ApeP1C17•ApeEF1A•GTP•ApePelota complex, sitting drop vapor diffusion at 20 °C, 3.0 Å
[3] = biological target: T2, Pyrococcus horikoshii elongation factor …; test: pull-down; MBP-P1 fusion held on amylose resin; EF1A (1,000 pmol), Pelota (1,000 pmol) and equal amounts of MBP-P1 in 100 µl PD buffer (25 mM Tris-HCl pH 8.0, 200 mM NaCl, 10 mM MgCl2, 1 mM GTP), 4 °C, 90 min; eluted with 50 mM maltose; SDS-PAGE, CBB staining
[4] = biological target: T3, PhoEF1A•GTP•PfuPelota complex; test: fluorescence polarisation; FITC-labelled peptide (50 nM) with 0-160 µM PhoEF1A•GTP•PfuPelota complex in FP buffer (20 mM HEPES-KOH pH 7.6, 10 mM MgCl2, 150 mM KCl, 0.1 mg/ml BSA), 25 °C; one site specific binding fit
[5] = biological target: T2, Pyrococcus horikoshii elongation factor …; test: fluorescence polarisation; FITC-labelled PhoP1C14 with increasing PhoEF1A•GDP complex; same assay as for the GTP complex

Binder | binding result [2] | binding result [3] | other results
EEEVDLSGLSGMFGF (domain or fragment, Vector pMAL-c4x, EcoRI-PstI; not shown: MBP, N-terminal, kept) [N-terminal MBP fused with the C-terminal 15 amino acid residues of A. pernix aP1 (MBP-ApeP1C15)] | – | – | binding result [1]: binds
KKEEEVDLSGLSGMFGF (C-terminal 17 residues of Aeropyrum pernix ribosomal stalk protein aP1 (ends at F111); also called aP1C17; aP1-CTD; source: synthetic peptide (Hokkaido System Science)) [C-terminal 17-mer peptide of A. pernix aP1 (ApeP1C17)] | binds | – | –
{FITC′}-SEEEALAGLSALFG (C-terminal 14 residues of P. horikoshii ribosomal stalk protein aP1 (last residues L106, F107, G108); also called WT; C-terminal peptide; source: synthetic peptide (Hokkaido System Science)) [C-terminal 14-mer peptide of P. horikoshii aP1 (PhoP1C14), FITC-labelled] | – | – | Kd [4]: 23.6 µM; Kd [5]: 10.4 µM
Pyrococcus furiosus aPelota (PfuPelota) (natural protein, UniProt Q8U150 1-356, looked up, aPelota of Pyrococcus furiosus) MEILEEKPKEGKIKIKAETLDDLWHLYHIISEGDVVYAKTLRKQAQRSDSLRPEKVEAVPVFLGIKAEKINLHRFANQLRITGPIIYASREDVPLGRYHTLTVEPGTVITIQKEKWKNYHIERLKEAIESSKKARVMIVAIEDGEAEIAIVREYGLDFVGSITYNISGKRYNIKRDDEEKKFFHEVAKSMEELMKRENIEKAIVAGPGFYKENFVNFLRENYPELAKKVVTDDTSMGGRTGIYEVIKRGTVDKVYTESRISKEIKLVEKVIEEIAKNGLVAYGLKEVEEATNYGAVETLIVLDSLLKGELREKIEELMELARNLRASVVVVSSEHEGGDKLKALGGIAALLRFKIK | – | binds | –

Second part, led by results:

binding result [2] | binding result [3] | Binder | other results
binds | – | Aeropyrum pernix aPelota (ApePelota) (natural protein, A. pernix, UniProt Q9YAZ5 1-356, looked up, aPelota of Aeropyrum pernix) MRVEVLDNKRRIVRLRPESEEDLWLLRITLRPGDVVRIRTSRDVPVGSGRKERVVMTLRIRLDSIEFQPFTGKLRISGIVVEGPDEFGVKGRRHSTAVSIGTWLVVERDKGWSEQELERLASGRARGTAVIAAVDYDEFALAVLAGHGMKILEDTSARLPGKDDPSREQEVEKYVDRAAKRIVEEAARHRSPIAVIAGPGQLKTSVAEKVQRAMPSLKVATVDTSMGGVAGVREALRRESVTRILRELSIVEAEGVLEEFLRRIAKSRDTVAYTPGEVLAVARMGAVDTVLLVDTLLHSPDDAVREAVDEALRLVESMGGRVIIIPGDSPAGERLVSFGGVIALLRYPVPQEARRL | –
– | binds | SEEEALAGLSALFG (domain or fragment, P. horikoshii, C-terminal 14 residues of P. horikoshii ribosomal stalk protein aP1; made by removing residues 61-94 from pMAL-c4x-aP1[61-108]; the 14 residues are identical in both species; Vector pMAL-c4x; also called MBP-PfuP1C14; not shown: MBP, N-terminal, kept) [maltose-binding protein fused to the C-terminal 14 amino acid sequence of PhoP1 (MBP-PhoP1C14)] | –

From paper PMC6791870, “Switch of the interactions between the ribosomal stalk and EF1A in the GTP- and GDP-bound conformations” (Scientific Reports, 2019)
